Laboratory results as given in article PMC8956632.

B1: 5-HT1AR-EGFP [human] / OX1R-Rluc [human] (parent)
chain 1: MDVLSPGQGNNTTSPPAPFETGGNTTGISDVTVSYQVITSLLLGTLIFCAVLGNACVVAAIALERSLQNVANYLIGSLAVTDLMVSVLVLPMAALYQVLNKWTLGQVTCDLFIALDVLCCTSSILHLCAIALDRYWAITDPIDYVNKRTPRRAAALISLTWLIGFLISIPPMLGWRTPEDRSDPDACTISKDHGYTIYSTFGAFYIPLLLMLVLYGRIFRAARFRIRKTVKKVEKTGADTRHGASPAPQPKKSVNGESGSRNWRLGVESKAGGALCANGAVRQGDDGAALEVIEVHRVGNSKEHLPLPSEAGPTPCAPASFERKNERNAEAKRKMALARERKTVKTLGIIMGTFILCWLPFFIVALVLPFCESSCHMPTLLGAIINWLGYSNSLLNPVIYAYFNKDFQNAFKKIIKCKFCRQ
chain 2: MEPSATPGAQMGVPPGSREPSPVPPDYEDEFLRYLWRDYLYPKQYEWVLIAAYVAVFVVALVGNTLVCLAVWRNHHMRTVTNYFIVNLSLADVLVTAICLPASLLVDITESWLFGHALCKVIPYLQAVSVSVAVLTLSFIALDRWYAICHPLLFKSTARRARGSILGIWAVSLAIMVPQAAVMECSSVLPELANRTRLFSVCDERWADDLYPKIYHSCFFIVTYLAPLGLMAMAYFQIFRKLWGRQIPGTTSALVRNWKRPSDQLGDLEQGLSGEPQPRARAFLAEVKQMRARRKTAKMLMVVLLVFALCYLPISVLNVLKRVFGMFRQASDREAVYACFTFSHWLVYANSAANPIIYNFLSGKFREQFKAAFSCCLPGLGPCGSLKAPSPRSSASHKSLSLQSRCSISKISEHVVLTSVTTVLP
B2: OX1R-EGFP [human] / 5-HT1AR-Rluc [human] (parent)
chain 1: B1 chain 2
chain 2: B1 chain 1

Variants of: B1
Test: BRET
Conditions: with OX1R-Rluc [human]; HEK293 cells, basal (no agonist); parent: 0.26; read off a plot

Row | response | Variant
1 | 0.23 | chain 1 MDVLSPGQGNNTTSPPAPFETGGNTTGISDVTVSYQVITSLLLGTLIFCAVLGNACVVAAIALERSLQNVANYLIGSLAVTDLMVSVLVLPMAALYQVLNKWTLGQVTCDLFIALDVLCCTSSILHLCAIALDRYWAITDPIDYVNKRTPRRAAALISLTWLIGFLISIPPMLGWRTPEDRSDPDACTISKDHGYTIASTFGAFYIPLLLMLVLYGRIFRAARFRIRKTVKKVEKTGADTRHGASPAPQPKKSVNGESGSRNWRLGVESKAGGALCANGAVRQGDDGAALEVIEVHRVGNSKEHLPLPSEAGPTPCAPASFERKNERNAEAKRKMALARERKTVKTLGIIMGTFILCWLPFFIVALVLPFCESSCHMPTLLGAIINWLGYSNSLLNPVIYAYFNKDFQNAFKKIIKCKFCRQ [chain 1 Y198A]
2 | 0.26 | chain 1 MDVLSPGQGNNTTSPPAPFETGGNTTGISDVTVSYQVITSLLLGTLIFCAVLGNACVVAAIALERSLQNVANYLIGSLAVTDLMVSVLVLPMAALYQVLNKWTLGQVTCDLFIALDVLCCTSSILHLCAIALDRYWAITDPIDYVNKRTPRRAAALISLTWLIGFLISIPPMLGARTPEDRSDPDACTISKDHGYTIYSTFGAFYIPLLLMLVLYGRIFRAARFRIRKTVKKVEKTGADTRHGASPAPQPKKSVNGESGSRNWRLGVESKAGGALCANGAVRQGDDGAALEVIEVHRVGNSKEHLPLPSEAGPTPCAPASFERKNERNAEAKRKMALARERKTVKTLGIIMGTFILCWLPFFIVALVLPFCESSCHMPTLLGAIINWLGYSNSLLNPVIYAYFNKDFQNAFKKIIKCKFCRQ [chain 1 W175A]
3 | 0.16 | chain 1 MDVLSPGQGNNTTSPPAPFETGGNTTGISDVTVSYQVITSLLLGTLIFCAVLGNACVVAAIALERSLQNVANYLIGSLAVTDLMVSVLVLPMAALYQVLNKWTLGQVTCDLFIALDVLCCTSSILHLCAIALDRYWAITDPIDYVNKRTPARAAALISLTWLIGFLISIPPMLGWRTPEDRSDPDACTISKDHGYTIYSTFGAFYIPLLLMLVLYGRIFRAARFRIRKTVKKVEKTGADTRHGASPAPQPKKSVNGESGSRNWRLGVESKAGGALCANGAVRQGDDGAALEVIEVHRVGNSKEHLPLPSEAGPTPCAPASFERKNERNAEAKRKMALARERKTVKTLGIIMGTFILCWLPFFIVALVLPFCESSCHMPTLLGAIINWLGYSNSLLNPVIYAYFNKDFQNAFKKIIKCKFCRQ [chain 1 R151A]

Variants of: B2
Test: BRET
Conditions: with 5-HT1AR-Rluc [human]; HEK293 cells, basal (no agonist); parent: 0.27; read off a plot

Row | response | Variant
4 | 0.21 | chain 1 MEPSATPGAQMGVPPGSREPSPVPPDYEDEFLRYLWRDYLYPKQYEWVLIAAYVAVFVVALVGNTLVCLAVWRNHHMRTVTNYFIVNLSLADVLVTAICLPASLLVDITESWLFGHALCKVIPYLQAVSVSVAVLTLSFIALDRWYAICHPLLFKSTARRARGSILGIWAVSLAIMVPQAAVMECSSVLPELANRTRLFSVCDERWADDLYPKIYHSCFFIVTYLAPLGAMAMAYFQIFRKLWGRQIPGTTSALVRNWKRPSDQLGDLEQGLSGEPQPRARAFLAEVKQMRARRKTAKMLMVVLLVFALCYLPISVLNVLKRVFGMFRQASDREAVYACFTFSHWLVYANSAANPIIYNFLSGKFREQFKAAFSCCLPGLGPCGSLKAPSPRSSASHKSLSLQSRCSISKISEHVVLTSVTTVLP [chain 1 L230A]
5 | 0.27 | chain 1 MEPSATPGAQMGVPPGSREPSPVPPDYEDEFLRYLWRDYLYPKQYEWVLIAAYVAVFVVALVGNTLVCLAVWRNHHMRTVTNYFIVNLSLADVLVTAICLPASLLVDITESWLFGHALCKVIPYLQAVSVSVAVLTLSFIALDRWYAICHPLLFKSTARAARGSILGIWAVSLAIMVPQAAVMECSSVLPELANRTRLFSVCDERWADDLYPKIYHSCFFIVTYLAPLGLMAMAYFQIFRKLWGRQIPGTTSALVRNWKRPSDQLGDLEQGLSGEPQPRARAFLAEVKQMRARRKTAKMLMVVLLVFALCYLPISVLNVLKRVFGMFRQASDREAVYACFTFSHWLVYANSAANPIIYNFLSGKFREQFKAAFSCCLPGLGPCGSLKAPSPRSSASHKSLSLQSRCSISKISEHVVLTSVTTVLP [chain 1 R160A]
6 | 0.23 | chain 1 MEPSATPGAQMGVPPGSREPSPVPPDYEDEFLRYLWRDYLYPKQYEWVLIAAYVAVFVVALVGNTLVCLAVWRNHHMRTVTNYFIVNLSLADVLVTAICLPASLLVDITESWLFGHALCKVIPYLQAVSVSVAVLTLSFIALDRWYAICHPLLFKSTARRARGSILGIWAVSLAIMVPQAAVMECSSVLPELANRTRLFSVCDERWADDLYPKIYHSCFFIVTYAAPLGLMAMAYFQIFRKLWGRQIPGTTSALVRNWKRPSDQLGDLEQGLSGEPQPRARAFLAEVKQMRARRKTAKMLMVVLLVFALCYLPISVLNVLKRVFGMFRQASDREAVYACFTFSHWLVYANSAANPIIYNFLSGKFREQFKAAFSCCLPGLGPCGSLKAPSPRSSASHKSLSLQSRCSISKISEHVVLTSVTTVLP [chain 1 L225A]
7 | 0.15 | chain 1 MEPSATPGAQMGVPPGSREPSPVPPDYEDEFLRYLWRDYLYPKQYEWVLIAAYVAVFVVALVGNTLVCLAVWRNHHMRTVTNYFIVNLSLADVLVTAICLPASLLVDITESWLFGHALCKVIPYLQAVSVSVAVLTLSFIALDRWYAICHPLLFKSTARRARGSILGIWAVSLAIAVPQAAVMECSSVLPELANRTRLFSVCDERWADDLYPKIYHSCFFIVTYLAPLGLMAMAYFQIFRKLWGRQIPGTTSALVRNWKRPSDQLGDLEQGLSGEPQPRARAFLAEVKQMRARRKTAKMLMVVLLVFALCYLPISVLNVLKRVFGMFRQASDREAVYACFTFSHWLVYANSAANPIIYNFLSGKFREQFKAAFSCCLPGLGPCGSLKAPSPRSSASHKSLSLQSRCSISKISEHVVLTSVTTVLP [chain 1 M176A]
